Paper PMC3702382 (Biochemistry, 2013)

Molecular target: the molecule itself
Assay: TOXCAT

Row | Protein | CAT activity, % of WT
1 | NRASLALTLLLLAILVWLMYSLWFGILIN (domain or fragment) [FtsB transmembrane domain TOXCAT construct, Gln 16 to Met] | 22 % of WT
2 | NRASLALTLLLLAILVWLNYSLWFGILIN (domain or fragment) [FtsB transmembrane domain TOXCAT construct, Gln 16 to Asn] | 67%
